In patent US20010010922:

What was measured:
[1] = test system: GST-BCL6 fusion protein (full-length BCL-6)
[2] = test system: GST-BCL6ΔZFAla333,343 fusion protein
[3] = test system: GST-BCL6ΔZFAla333 fusion protein

Sequence of Recombinant ERK2 (New England Biolabs) (P28482 2-360): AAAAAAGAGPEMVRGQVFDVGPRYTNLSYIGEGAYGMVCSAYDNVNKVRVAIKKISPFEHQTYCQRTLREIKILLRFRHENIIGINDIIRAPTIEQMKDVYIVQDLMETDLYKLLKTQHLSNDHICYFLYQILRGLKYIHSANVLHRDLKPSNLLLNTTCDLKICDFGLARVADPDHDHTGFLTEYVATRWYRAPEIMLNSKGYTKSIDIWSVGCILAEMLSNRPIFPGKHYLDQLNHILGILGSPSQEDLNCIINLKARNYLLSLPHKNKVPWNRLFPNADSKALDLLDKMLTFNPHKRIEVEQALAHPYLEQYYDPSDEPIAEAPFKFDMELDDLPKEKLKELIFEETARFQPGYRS

Recombinant ERK2 (New England Biolabs)
phosphorylation in ERK2 kinase assay in vitro ([gamma-32P]-ATP) [1]: purified recombinant MAPK (ERK-2) can phosphorylate GST-BCL-6 fusion proteins in vitro | phosphorylation in ERK2 kinase assay in vitro ([gamma-32P]-ATP) [2]: phosphorylated at much lower levels than wild type BCL-6, with BCL-6Ala333,343 displaying the lowest levels | phosphorylation in ERK2 kinase assay in vitro ([gamma-32P]-ATP) [3]: phosphorylated at much lower levels than wild type BCL-6
